Changes are numbered by the printed parent chain.

Common to all, as to assay: SPR, antibody captured, C2 as analyte;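 note: biacore SPR at 37 °C, anti-C2 mAbs captured via goat anti-human IgG on CM5 chips, double-referenced sensorgrams fit to a 1:1 kinetic or steady-state model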
One experiment concerns the target T1, human C2 E275A (human, UniProt P06681 21-752).
T1 sequence: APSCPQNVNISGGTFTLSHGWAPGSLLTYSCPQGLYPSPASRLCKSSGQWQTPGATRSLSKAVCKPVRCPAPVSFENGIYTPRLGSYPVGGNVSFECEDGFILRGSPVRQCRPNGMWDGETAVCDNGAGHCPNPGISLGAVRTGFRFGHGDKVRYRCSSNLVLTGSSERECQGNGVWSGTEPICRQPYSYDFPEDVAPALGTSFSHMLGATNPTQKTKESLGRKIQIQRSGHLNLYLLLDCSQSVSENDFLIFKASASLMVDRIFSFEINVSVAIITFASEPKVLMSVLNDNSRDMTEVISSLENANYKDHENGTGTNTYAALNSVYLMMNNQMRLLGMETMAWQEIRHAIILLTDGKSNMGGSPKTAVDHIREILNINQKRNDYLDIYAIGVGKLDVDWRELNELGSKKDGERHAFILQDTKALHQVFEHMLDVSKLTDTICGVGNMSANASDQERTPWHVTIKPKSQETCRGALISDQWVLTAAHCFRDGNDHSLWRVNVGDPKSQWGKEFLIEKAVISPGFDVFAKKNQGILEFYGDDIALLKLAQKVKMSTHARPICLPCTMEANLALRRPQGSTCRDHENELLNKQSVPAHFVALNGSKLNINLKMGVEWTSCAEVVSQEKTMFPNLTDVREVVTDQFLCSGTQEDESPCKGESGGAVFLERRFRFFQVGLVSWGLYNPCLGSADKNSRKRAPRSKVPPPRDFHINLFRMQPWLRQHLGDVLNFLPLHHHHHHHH

A further experiment has as its target T2, human C2 S469A (human, UniProt P06681 21-752).
T2 sequence: T1 sequence with A255E, S449A

Another experiment concerns the target T3, human C2 I272A (human, UniProt P06681 21-752).
T3 sequence: T1 sequence with I252A, A255E

For another experiment, the target named is T4, human C2 E433A (human, UniProt P06681 21-752).
T4 sequence: T1 sequence with A255E, E413A

B1: RF16-226 (antibody, human IgG4 S228P, lambda)
heavy: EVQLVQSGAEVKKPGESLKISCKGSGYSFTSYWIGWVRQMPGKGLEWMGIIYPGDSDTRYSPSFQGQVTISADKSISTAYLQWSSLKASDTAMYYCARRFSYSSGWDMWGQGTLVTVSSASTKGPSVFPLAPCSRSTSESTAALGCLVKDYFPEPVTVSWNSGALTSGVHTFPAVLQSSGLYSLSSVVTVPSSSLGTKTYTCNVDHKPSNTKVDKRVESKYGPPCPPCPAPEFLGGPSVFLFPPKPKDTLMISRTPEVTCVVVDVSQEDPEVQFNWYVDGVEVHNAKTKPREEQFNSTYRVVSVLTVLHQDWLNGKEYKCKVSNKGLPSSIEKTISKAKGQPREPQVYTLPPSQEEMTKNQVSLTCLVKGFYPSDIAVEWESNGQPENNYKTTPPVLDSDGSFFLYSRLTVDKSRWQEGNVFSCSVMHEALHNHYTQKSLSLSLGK
light: SYELTQPPSVSVSPGQTARITCSGDALTSKYVAWYQQKSGLAPLLVIYEDTRRPSGIPAKFSGSSSGSVATLTISGAHGDDEADYYCYSTDASGHQRVFGGGTKLTVLSQPKAAPSVTLFPPSSEELQANKATLVCLISDFYPGAVTVAWKADGSPVKAGVETTKPSKQSNNKYAASSYLSLTPEQWKSHRSYSCQVTHEGSTVEKTVAPTECS
notes: pH-dependent anti-C2 antibody from a phage display library; also called WT
Turning to B1, the Kd in the experiment with human C2 E275A was 9.4 nM; with human C2 S469A, 28.2 nM; with human C2 I272A, 10.4 nM; in the experiment with human C2 E433A, 2.6 nM.

One may read the Kd as a measure of binding affinity in units of concentration.

These data come from patent US20220332804A1 (CSL INNOVATION, published 2022).
